B1: SOAT1 (parent)
chain: PSNGRIDIKQLIAKKIKLTAEAEE
B2: TRAF3IP2 (parent)
chain: KQGSMNFRFIPVLFPNAKKEHVPT

Variants of: B1
Assay: protein stability index of a GFP-peptide fusion (GPS, HEK-293T) (PSI 1-6); higher = more stable
Conditions: c terminus: a fixed tail appended
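Further: lentivirally expressed fusions sorted by FACS into six bins by GFP to DsRed ratio, PSI derived from sequencing read proportions per bin multiplied by bin number.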

Variant	protein stability index
PSNGRIDIKQLIAKKIKLTAEAEH [E24H]	2.94
PSNGRIDIKQLIAKKIKLHAEAEE [T19H]	3.21
PSNGRIDIKQLIAKKIKLIAEAEE [T19I]	2.12
PSNGRIDIKQLIAKKIKLLAEAEE [T19L]	2.15
PSNGRIDIKQLIAKKIKLKAEAEE [T19K]	2.52
PSNGRIDIKQLIAKKIKLDAEAEE [T19D]	4.18
PSNGRIDIKQLIAKKIKLSAEAEE [T19S]	2.9
PSNGRIDIKQLIAKKIKLWAEAEE [T19W]	2.21
PSNGRIDIKQLIAKKIKLEAEAEE [T19E]	3.88
PSNGRIDIKQLIAKKIKLGAEAEE [T19G]	3.17
PSNGRIDIKQLIAKKIKLCAEAEE [T19C]	3.06
PSNGRIDIKQLIAKKIKLVAEAEE [T19V]	2.75
PSNGRIDIKQLIAKKIKLFAEAEE [T19F]	1.98
PSNGRIDIKQLIAKKIKLYAEAEE [T19Y]	2.52
PSNGRIDIKQLIAKKIKLRAEAEE [T19R]	2.73
PSNGRIDIKQLIAKKIKLPAEAEE [T19P]	3.4
PSNGRIDIKQLIAKKIKLAAEAEE [T19A]	3.48
PSNGRIDIKQLIAKKIKLNAEAEE [T19N]	3.29
PSNGRIDIKQLIAKKIKLQAEAEE [T19Q]	2.96
PSNGRIDIKQLIAKKIKLMAEAEE [T19M]	1.89
PSNGRIDIKQLIAKKITLTAEAEE [K17T]	3.5
PSNGRIDIKQLIAKKIYLTAEAEE [K17Y]	2.84
PSNGRIDIKQLIAKKIVLTAEAEE [K17V]	3.38

Variant	protein stability index
PSNGRIDIKQLIAKKIRLTAEAEE [K17R]	2.99
PSNGRIDIKQLIAKKIWLTAEAEE [K17W]	2.53
PSNGRIDIKQLIAKKISLTAEAEE [K17S]	3.59
PSNGRIDIKQLIAKKIKLTAEALE [E23L]	2.12
PSNGRIDIKQLIAKKIKLTAEAGE [E23G]	2.98
PSNGRIDIKQLIAKKIKLTAEAWE [E23W]	2.31
PSNGRIDIKQLIAKKIKLTAEASE [E23S]	2.51
PSNGRIDIKQLIAKKIKLTAEAAE [E23A]	2.66
PSNGRIDIKQLIAKKIKLTAEAFE [E23F]	1.75
PSNGRIDIKQLIAKKIKLTAEAHE [E23H]	2.67
PSNGRIDIKQLIAKKIKLTAEADE [E23D]	3.3
PSNGRIDIKQLIAKKIKLTAEAPE [E23P]	2.88
PSNGRIDIKQLIAKKIKLTAEAYE [E23Y]	2.22
PSNGRIDIKQLIAKKIKLTAEACE [E23C]	2.33
PSNGRIDIKQLIAKKIKLTAEAME [E23M]	2.06
PSNGRIDIKQLIAKKIKLTAEAKE [E23K]	3.15
PSNGRIDIKQLIAKKIKLTAEAVE [E23V]	2.3
PSNGRIDIKQLIAKKIKLTAEAIE [E23I]	2.69
PSNGRIDIKQLIAKKIKLTAEATE [E23T]	3.13
PSNGRIDIKQLIAKKIKLTAEAQE [E23Q]	2.35
PSNGRIDIKQLIAKKIKLTAEANE [E23N]	2.93
PSNGRIDIKQLIAKKIKLTAEARE [E23R]	2.74

Variants of: B2
Assay: as above
Conditions: c terminus: a fixed tail appended

Variant	protein stability index
KQGSMHFRFIPVLFPNAKKEHVPT [N6H]	1.72
KQGSMIFRFIPVLFPNAKKEHVPT [N6I]	2.15
KQGSMCFRFIPVLFPNAKKEHVPT [N6C]	1.67
KQGSMNFRFIPVLFPNASKEHVPT [K18S]	1.71
KQGSMNFRFIPVLFPNATKEHVPT [K18T]	1.85
KQGSMNFRFIPVLFPNAKKEHIPT [V22I]	2.11
KQGSMNFRFIPVLFPIAKKEHVPT [N16I]	2.29
KQGSMNFRFIPVLFPNAKKRHVPT [E20R]	1.65
KQGSMNFRFIPVLFPNAKKFHVPT [E20F]	1.93
KQGSMNFRFIPVLFPNAKKCHVPT [E20C]	1.85
KQGSMNFRFIPVLFPNAKKQHVPT [E20Q]	2.02
KQGSMNIRFIPVLFPNAKKEHVPT [F7I]	2.12
KQGSMNERFIPVLFPNAKKEHVPT [F7E]	3.67
KQGSHNFRFIPVLFPNAKKEHVPT [M5H]	2.15
KQGNMNFRFIPVLFPNAKKEHVPT [S4N]	2.26
KQGCMNFRFIPVLFPNAKKEHVPT [S4C]	1.73
KQGSMNFRFIPVLDPNAKKEHVPT [F14D]	2.77
KQGSMNFRFIPVLYPNAKKEHVPT [F14Y]	1.95
KQGSMNFRFIPVLNPNAKKEHVPT [F14N]	2.06
KQGSMNFRFIPVLAPNAKKEHVPT [F14A]	1.88
KQGSMNFRFIPVLFPNAKKEHVPI [T24I]	1.7
KQGSMNFRFIPVLFPNAKKEHVPV [T24V]	1.76
KQGSMNFRFIPVLFPNAKKEHVAT [P23A]	1.82
KQGSMNFRFIPVLFPNAKKEHVGT [P23G]	2.15
KQGSMNFRFIPDLFPNAKKEHVPT [V12D]	2.17

Variant	protein stability index
KQGSMNFRFIPCLFPNAKKEHVPT [V12C]	2.35
KQGSMNFRFIPHLFPNAKKEHVPT [V12H]	2.39
KQGSMNFRFIPVLFPNAKQEHVPT [K19Q]	1.84
KQGSMNFRFIPVLFPNAKSEHVPT [K19S]	1.98
KQGSMNFRFIPVLFPNAKDEHVPT [K19D]	2.13
KQGSMNFRFIPVLFCNAKKEHVPT [P15C]	1.7
KQGSMNFRFIPVLFMNAKKEHVPT [P15M]	1.58
KQGSMNFRFIPVCFPNAKKEHVPT [L13C]	2.07
KQGSMNFRFIPVQFPNAKKEHVPT [L13Q]	2.02
HQGSMNFRFIPVLFPNAKKEHVPT [K1H]	2.17
KVGSMNFRFIPVLFPNAKKEHVPT [Q2V]	1.85
KQGSMNFRFIPVLFPNAKKEDVPT [H21D]	2.06
KQGSMNFRFIPVLFPNAKKELVPT [H21L]	2.23
KQGSMNFRFIPVLFPNAKKEPVPT [H21P]	2.14
KQGSMNFRFIPVLFPNAKKEFVPT [H21F]	1.66
KQGSMNFRHIPVLFPNAKKEHVPT [F9H]	3.38
KQGSMNFRSIPVLFPNAKKEHVPT [F9S]	3.2
KQGSMNFRLIPVLFPNAKKEHVPT [F9L]	2.44
KQGSMNFRFIDVLFPNAKKEHVPT [P11D]	2.37
KQGSMNFRFKPVLFPNAKKEHVPT [I10K]	2.56
KQGSMNFRFCPVLFPNAKKEHVPT [I10C]	2.3
KQGSMNFRFTPVLFPNAKKEHVPT [I10T]	2.07
KQGSMNFRFSPVLFPNAKKEHVPT [I10S]	2.46
KQQSMNFRFIPVLFPNAKKEHVPT [G3Q]	1.85

Source: the supplement of paper PMC10567573
